Measured values from US20160091500.

T1: intact chondroadherin (CHAD) polypeptide, human
T1 sequence: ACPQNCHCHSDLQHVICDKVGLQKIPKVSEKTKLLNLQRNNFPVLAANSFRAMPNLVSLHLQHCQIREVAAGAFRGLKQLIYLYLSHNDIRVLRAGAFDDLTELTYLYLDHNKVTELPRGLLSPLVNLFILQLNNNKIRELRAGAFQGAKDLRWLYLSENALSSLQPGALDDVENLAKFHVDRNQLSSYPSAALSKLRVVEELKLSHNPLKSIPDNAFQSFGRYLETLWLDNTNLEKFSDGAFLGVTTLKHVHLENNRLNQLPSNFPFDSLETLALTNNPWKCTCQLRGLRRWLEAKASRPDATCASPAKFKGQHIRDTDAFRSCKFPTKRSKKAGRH

B1: MMP-7 (enzyme, UniProt P09237 95-267, looked up, species assumed)
Matrilysin: YSLFPNSPKWTSKVVTYRIVSYTRDLPHITVDRLVSKALNMWGKEIPLHFRKVVWGTADIMIGFARGAHGDSYPFDGPGNTLAHAFAPGTGLGGDAHFDEDERWTDGSSLGINFLYAATHELGHSLGMGHSSDPNAVMYPTYGNGDPQNFKLSQDDIKGIQKLYGKRSNSRKK
B2: Recombinant cathepsin K (enzyme, UniProt P43235 115-329, looked up, species assumed)
Cathepsin K: APDSVDYRKKGYVTPVKNQGQCGSCWAFSSVGALEGQLKKKTGKLLNLSPQNLVDCVSENDGCGGGYMTNAFQYVQKNRGIDSEDAYPYVGQEESCMYNPTGKAAKCRGYREIPEGNEKALKRAVARVGPVSVAIDASLTSFQFYSKGVYYDESCNSDNLNHAVLAVGYGIQKGNKHWIIKNSWGENWGNKGYILMARNKNNACGIANLASFPKM
B3: ADAMTS4 (enzyme, UniProt O75173 213-837, looked up, species assumed)
A disintegrin and metalloproteinase with thrombospondin motifs 4: FASLSRFVETLVVADDKMAAFHGAGLKRYLLTVMAAAAKAFKHPSIRNPVSLVVTRLVILGSGEEGPQVGPSAAQTLRSFCAWQRGLNTPEDSDPDHFDTAILFTRQDLCGVSTCDTLGMADVGTVCDPARSCAIVEDDGLQSAFTAAHELGHVFNMLHDNSKPCISLNGPLSTSRHVMAPVMAHVDPEEPWSPCSARFITDFLDNGYGHCLLDKPEAPLHLPVTFPGKDYDADRQCQLTFGPDSRHCPQLPPPCAALWCSGHLNGHAMCQTKHSPWADGTPCGPAQACMGGRCLHMDQLQDFNIPQAGGWGPWGPWGDCSRTCGGGVQFSSRDCTRPVPRNGGKYCEGRRTRFRSCNTEDCPTGSALTFREEQCAAYNHRTDLFKSFPGPMDWVPRYTGVAPQDQCKLTCQAQALGYYYVLEPRVVDGTPCSPDSSSVCVQGRCIHAGCDRIIGSKKKFDKCMVCGGDGSGCSKQSGSFRKFRYGYNNVVTIPAGATHILVRQQGNPGHRSIYLALKLPDGSYALNGEYTLMPSPTDVVLPGAVSLRYSGATAASETLSGHGPLAQPLTLQVLVAGNPQDTRLRYSFFVPRPTPSTPRPTPQDWLHRRAQILEILRRRPWAGRK

tested on: T1, intact chondroadherin (CHAD) polypeptide, human

Row | Molecule | CHAD fragmentation after protease digestion of normal disc tissue (SDS-PAGE, immunoblot)
1 | ADAMTS5 | digestions performed with ADAMTS4 and ADAMTS5 also did not generate CHAD fragments
2 | Recombinant cathepsin B | Digestions performed with cathepsins B and L showed extensive degradation of CHAD
3 | MMP-13 | Digestion with MMPs 3, 7, 12 and 13, showed no evidence of CHAD fragments retained in the tissue
4 | MMP-3 | Digestion with MMPs 3, 7, 12 and 13, showed no evidence of CHAD fragments retained in the tissue
5 | MMP-12 | Digestion with MMPs 3, 7, 12 and 13, showed no evidence of CHAD fragments retained in the tissue
6 | Recombinant cathepsin L | Digestions performed with cathepsins B and L showed extensive degradation of CHAD
7 | B1 | Digestion with MMPs 3, 7, 12 and 13, showed no evidence of CHAD fragments retained in the tissue
8 | B2 | cathepsin K generated a CHAD fragment large enough to be retained in the gel and similar in size to that generated in situ
9 | B3 | digestions performed with ADAMTS4 and ADAMTS5 also did not generate CHAD fragments
